In patent US20180231567A1:

Experiments:
[1] = molecular target: serum IgE of the 10 allergic adults sensitized to peanut extract used for the inhibition experiments (Example 3) (human); assay: ELISA cross-inhibition; Ara h 7.0201 immobilized, sera pre-incubated with competing allergen at 0.1, 1 and 10 ug/ml
[2] = molecular target: serum IgE of the 10 allergic adults sensitized to peanut extract used for the inhibition experiments (Example 3) (human); assay: ELISA cross-inhibition; Ara h 6 immobilized, sera pre-incubated with competing allergen at 0.1, 1 and 10 ug/ml

B1: Ara h 2 isotype 2.0201, as expressed in example 1 (His fusion protein) (protein)
chain: MSHHHHHHIEGRTMRQQWELQGDRRCQSQLERANLRPCEQHLMQKIQRDEDSYGRDPYSPSQDPYSPSQDPDRRDPYSPSPYDRRGAGSSQHQERCCNELNEFENNQRCMCEALQQIMENQSDRLQGRQQEQQFKRELRNLPQQCGLRAPQRCDLEVESGGRDRY
Work on B1 yielded a % inhibition (median) [1] of 16% and a % inhibition (median) [2] of 43%.
